Laboratory results reported in US20220017589A1 (BEIJING QL BIOPHARMACEUTICAL, published 2022).

T1: human GFRAL (human, UniProt Q6UXV0 19-394)
T1 sequence (looked up): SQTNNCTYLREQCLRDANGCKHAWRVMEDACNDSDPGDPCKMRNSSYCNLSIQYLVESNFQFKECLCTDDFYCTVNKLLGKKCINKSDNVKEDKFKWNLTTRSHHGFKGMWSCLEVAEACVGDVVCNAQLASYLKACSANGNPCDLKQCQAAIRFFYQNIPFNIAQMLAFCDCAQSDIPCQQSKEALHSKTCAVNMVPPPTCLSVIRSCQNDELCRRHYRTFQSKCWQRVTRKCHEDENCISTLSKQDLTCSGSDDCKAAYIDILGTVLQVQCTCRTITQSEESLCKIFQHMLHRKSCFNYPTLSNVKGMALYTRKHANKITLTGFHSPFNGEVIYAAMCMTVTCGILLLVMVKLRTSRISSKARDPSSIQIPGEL


Assays:
Experiment in all cases: cell-based or functional assay
[1] = target: T2, human GLP-1 receptor (human, UniProt P43220 24-463)
[2] = target: T1, human GFRAL
[3] = target: T2, human GLP-1 receptor; remark: listed apart in the source
[4] = target: T1, human GFRAL; remark: listed apart in the source

| GLP-1 activity (EC50, pM, 1% HSA) [1] [pM] | GDF15 activity (EC50, pM, 1% HSA) [2] [pM] | GLP-1 activity (EC50, pM) [3] [pM] | GDF15 activity (EC50, pM) [4] [pM] | Binder |
| --- | --- | --- | --- | --- |
| 168 | 55.5 | 10 | 50 | MLC105 (ligand, Moiety B (HOOC-(CH2)16-CO-gGlu-2XADO-EDA-CO-CH2) on 17C of Linker (48C of fusion polypeptide)) HGEGTFTSDVSSYLEEQAAKEFIAWLVRGGGGAQPGAQPGAQPGAQPCQAPGAQPGAQPGAQPGQEPGAQPGQEPGAQPGQEPGAQPGQEPGAQPGQEPGAQPGQEPGAQPARQGDHCPLGPGRCCRLHTVRASLEDLGWADWVLSPREVQVTMCIGACPSQFRAANLHAQIKTSLHRLKPDTVPAPCCVPASYNPMVLIQKTDTGVSLQTYDDLLAKDCHCI |
| 9.53 | 1360 |  |  | MLC123 (ligand, Moiety B (HOOC-(CH2)16-CO-gGlu-2XADO-EDA-CO-CH2) on 79C of Linker (110C of fusion polypeptide)) HGEGTFTSDVSSYLEEQAAKEFIAWLVRGGGGAQPGAQPGAQPGAQPGAQPGAQPGAQPGAQPGQEPGAQPGQEPGAQPGQEPGAQPGQEPGAQPGQEPGAQPGQEPGQCPARQGDHCPLGPGRCCRLHTVRASLEDLGWADWVLSPREVQVTMCIGACPSQFRAANLHAQIKTSLHRLKPDTVPAPCCVPASYNPMVLIQKTDTGVSLQTYDDLLAKDCHCI |
| 39.9 | 58 | 1.1 | 59.3 | MLC107 (ligand, Moiety B (HOOC-(CH2)16-CO-gGlu-2XADO-EDA-CO-CH2) on 25C of Linker (56C of fusion polypeptide)) HGEGTFTSDVSSYLEEQAAKEFIAWLVRGGGGAQPGAQPGAQPGAQPGAQPGAQPCQAPGAQPGQEPGAQPGQEPGAQPGQEPGAQPGQEPGAQPGQEPGAQPGQEPGAQPARQGDHCPLGPGRCCRLHTVRASLEDLGWADWVLSPREVQVTMCIGACPSQFRAANLHAQIKTSLHRLKPDTVPAPCCVPASYNPMVLIQKTDTGVSLQTYDDLLAKDCHCI |
| 7.52 | 194 | 11 | 54.9 | MLC111 (ligand, Moiety B (HOOC-(CH2)16-CO-gGlu-2XADO-EDA-CO-CH2) on 51C of Linker (82C of fusion polypeptide)) HGEGTFTSDVSSYLEEQAAKEFIAWLVRGGGGAQPGAQPGAQPGAQPGAQPGAQPGAQPGAQPGQEPGAQPGQEPGAQPGQCPGQEPGQEPGAQPGQEPGAQPGQEPGAQPARQGDHCPLGPGRCCRLHTVRASLEDLGWADWVLSPREVQVTMCIGACPSQFRAANLHAQIKTSLHRLKPDTVPAPCCVPASYNPMVLIQKTDTGVSLQTYDDLLAKDCHCI |
| 24.4 | 49.2 | 1.4 | 23.8 | MLC087 (ligand, Moiety B (HOOC-(CH2)16-CO-gGlu-2XADO-EDA-CO-CH2) on 41C of Linker (72C of fusion polypeptide)) HGEGTFTSDVSSYLEEQAAKEFIAWLVRGGGGAQPGAQPGAQPGAQPGAQPGAQPGAQPGAQPGQEPGAQPCQEPGAQPGQEPGAQPGQEPGAQPGQEPGAQPGQEPGAQPARQGDHCPLGPGRCCRLHTVRASLEDLGWADWVLSPREVQVTMCIGACPSQFRAANLHAQIKTSLHRLKPDTVPAPCCVPASYNPMVLIQKTDTGVSLQTYDDLLAKDCHCI |
| 872 | 72.8 |  |  | MLC127 (ligand, Moiety B (HOOC-(CH2)16-CO-gGlu-2XADO-EDA-CO-CH2) on 26C of GLP-1 (20C of fusion polypeptide)) HGEGTFTSDVSSYLEEQAACEFIAWLVRGGGGAQPGAQPGAQPGAQPGAQPGAQPGAQPGAQPGQEPGAQPGQEPGAQPGQEPGAQPGQEPGAQPGQEPGAQPGQEPGAQPARQGDHCPLGPGRCCRLHTVRASLEDLGWADWVLSPREVQVTMCIGACPSQFRAANLHAQIKTSLHRLKPDTVPAPCCVPASYNPMVLIQKTDTGVSLQTYDDLLAKDCHCI |
| 27.3 | 67.6 | 1.4 | 54.8 | MLC093 (ligand, Moiety B (HOOC-(CH2)16-CO-gGlu-2XADO-EDA-CO-CH2) on 33C of Linker (64C of fusion polypeptide)) HGEGTFTSDVSSYLEEQAAKEFIAWLVRGGGGAQPGAQPGAQPGAQPGAQPGAQPGAQPGAQPCQEPGAQPGQEPGAQPGQEPGAQPGQEPGAQPGQEPGAQPGQEPGAQPARQGDHCPLGPGRCCRLHTVRASLEDLGWADWVLSPREVQVTMCIGACPSQFRAANLHAQIKTSLHRLKPDTVPAPCCVPASYNPMVLIQKTDTGVSLQTYDDLLAKDCHCI |
| 24.4 | 66.2 | 1.2 | 42.9 | MLC089 (ligand, Moiety B (HOOC-(CH2)16-CO-gGlu-2XADO-EDA-CO-CH2) on 39C of Linker (70C of fusion polypeptide)) HGEGTFTSDVSSYLEEQAAKEFIAWLVRGGGGAQPGAQPGAQPGAQPGAQPGAQPGAQPGAQPGQEPGQCPGQEPGAQPGQEPGAQPGQEPGAQPGQEPGAQPGQEPGAQPARQGDHCPLGPGRCCRLHTVRASLEDLGWADWVLSPREVQVTMCIGACPSQFRAANLHAQIKTSLHRLKPDTVPAPCCVPASYNPMVLIQKTDTGVSLQTYDDLLAKDCHCI |
| 9.67 | 1670 |  |  | MLC126 (ligand, Moiety B (HOOC-(CH2)16-CO-gGlu-2XADO-EDA-CO-CH2) on 73C of Linker (104C of fusion polypeptide)) HGEGTFTSDVSSYLEEQAAKEFIAWLVRGGGGAQPGAQPGAQPGAQPGAQPGAQPGAQPGAQPGQEPGAQPGQEPGAQPGQEPGAQPGQEPGAQPGQEPGAQPCQEPGAQPARQGDHCPLGPGRCCRLHTVRASLEDLGWADWVLSPREVQVTMCIGACPSQFRAANLHAQIKTSLHRLKPDTVPAPCCVPASYNPMVLIQKTDTGVSLQTYDDLLAKDCHCI |
| 434 | 70.2 |  |  | MLC122 (ligand, Moiety B (HOOC-(CH2)16-CO-gGlu-2XADO-EDA-CO-CH2) on 5C of Linker (36C of fusion polypeptide)) HGEGTFTSDVSSYLEEQAAKEFIAWLVRGGGGAQPCQAPGAQPGAQPGAQPGAQPGAQPGAQPGQEPGAQPGQEPGAQPGQEPGAQPGQEPGAQPGQEPGAQPGQEPGAQPARQGDHCPLGPGRCCRLHTVRASLEDLGWADWVLSPREVQVTMCIGACPSQFRAANLHAQIKTSLHRLKPDTVPAPCCVPASYNPMVLIQKTDTGVSLQTYDDLLAKDCHCI |
|  | 11.3 |  | 8.1 | Native GDF15 (ligand) ARNGDHCPLGPGRCCRLHTVRASLEDLGWADWVLSPREVQVTMCIGACPSQFRAANMHAQIKTSLHRLKPDTVPAPCCVPASYNPMVLIQKTDTGVSLQTYDDLLAKDCHCI |
